Measurements published in patent US20040197853A1.

## MTCS (enzyme)
Monoclonal IgE antibody
  In vitro Reactivity with IgE: < 5%
IgG antibody
  In vitro Reactivity with IgG: < 5%
